Source: patent US20250255972A1, “METHOD OF TREATING UVEITIS WITH MULTIVALENT PROTEIN-HYALURONIC ACID POLYMER CONJUGATE” (Valitor, Inc., priority 2022, published 2025)

Target: T1, Human IL-1β, Fc tagged (Acro Biosystems ILA-H525c) (human, UniProt P01584 117-269)
T1 construct: Bought BLI ligand, loaded on anti-human Fc probes; also called BLI ligand; not shown: Fc tag
Test: BLI (Gator), Fc-tagged IL-1β on anti-human Fc probes, conjugate as analyte, 1:1 global fit

B1: (SEQ ID NO:106)+HyA (850 kDa) conjugate #9, valency 15 (other)
scFv: EIVMTQSPSTLSASVGDRVIITCQASQSIDNWLSWYQQKPGKAPKLLIYRASTLASGVPSRFSGSGSGAEFTLTISSLQPDDFATYYCQNTGGGVSIAFGQGTKLTVLGGGGGSGGGGSGGGGSGGGGSEVQLVESGGGLVQPGGSLRLSCTASGFSLSSAAMAWVRQAPGKGLEWVGIIYDSASTYYASWAKGRFTISRDTSKNTVYLQMNSLRAEDTAVYYCARERAIFSGDFVLWGQGTLVTVSSSPSTPPTPSPSTPPGGC
modifications: C-terminal cysteine thiol of the rigid peptide linker joined through the EMCH organic linker to hyaluronic acid
Kd: 0.353 nM
